Results on one molecule are retold here after paper PMC7189476.

For orientation: Kd means the constant that tells how readily two partners part at equilibrium. A higher Kd goes with lower affinity. A word on the koff: it is the rate constant with which the complex falls apart. Low values mean slow dissociation, high ones fast dissociation. One may read the kon as the second-order rate constant of association. Lower therefore signals slower complex formation.

The target of the assay is human PCNA, purified (human), P12004. Description: SPR; Bio-Rad XPR 36; human PCNA (~350 RU) immobilised on GLC chip by amine coupling; subunits injected at 125 to 2000 nM; 25 mM HEPES pH 7.5, 10% glycerol, 200 mM sodium acetate pH 7.8, 8 mM magnesium acetate, 1 mM DTT, 0.005% Tween-20, 0.2 mg/ml BSA; 20°C; 1:1 (Langmuir) model. Conditions: remark: other sources report otherwise.
Chain of human PCNA, purified (human), P12004 (P12004 whole entry): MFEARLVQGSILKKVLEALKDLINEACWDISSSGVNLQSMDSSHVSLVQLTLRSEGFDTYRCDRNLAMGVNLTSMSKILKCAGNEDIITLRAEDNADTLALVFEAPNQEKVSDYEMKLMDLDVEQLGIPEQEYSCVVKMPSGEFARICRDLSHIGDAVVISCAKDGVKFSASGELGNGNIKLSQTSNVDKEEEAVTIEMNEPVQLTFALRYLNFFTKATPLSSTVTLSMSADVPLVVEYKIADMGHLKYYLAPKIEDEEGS

B1: p125, purified, P28340 1-1107 (natural protein)
chain: MDGKRRPGPGPGVPPKRARGGLWDDDDAPRPSQFEEDLALMEEMEAEHRLQEQEEEELQSVLEGVADGQVPPSAIDPRWLRPTPPALDPQTEPLIFQQLEIDHYVGPAQPVPGGPPPSRGSVPVLRAFGVTDEGFSVCCHIHGFAPYFYTPAPPGFGPEHMGDLQRELNLAISRDSRGGRELTGPAVLAVELCSRESMFGYHGHGPSPFLRITVALPRLVAPARRLLEQGIRVAGLGTPSFAPYEANVDFEIRFMVDTDIVGCNWLELPAGKYALRLKEKATQCQLEADVLWSDVVSHPPEGPWQRIAPLRVLSFDIECAGRKGIFPEPERDPVIQICSLGLRWGEPEPFLRLALTLRPCAPILGAKVQSYEKEEDLLQAWSTFIRIMDPDVITGYNIQNFDLPYLISRAQTLKVQTFPFLGRVAGLCSNIRDSSFQSKQTGRRDTKVVSMVGRVQMDMLQVLLREYKLRSYTLNAVSFHFLGEQKEDVQHSIITDLQNGNDQTRRRLAVYCLKDAYLPLRLLERLMVLVNAVEMARVTGVPLSYLLSRGQQVKVVSQLLRQAMHEGLLMPVVKSEGGEDYTGATVIEPLKGYYDVPIATLDFSSLYPSIMMAHNLCYTTLLRPGTAQKLGLTEDQFIRTPTGDEFVKTSVRKGLLPQILENLLSARKRAKAELAKETDPLRRQVLDGRQLALKVSANSVYGFTGAQVGKLPCLEISQSVTGFGRQMIEKTKQLVESKYTVENGYSTSAKVVYGDTDSVMCRFGVSSVAEAMALGREAADWVSGHFPSPIRLEFEKVYFPYLLISKKRYAGLLFSSRPDAHDRMDCKGLEAVRRDNCPLVANLVTASLRRLLIDRDPEGAVAHAQDVISDLLCNRIDISQLVITKELTRAASDYAGKQAHVELAERMRKRDPGSAPSLGDRVPYVIISAAKGVAAYMKSEDPLFVLEHSLPIDTQYYLEQQLAKPLLRIFEPILGEGRAEAVLLRGDHTRCKTVLTGKVGGLLAFAKRRNCCIGCRTVLSHQGAVCEFCQPRESELYQKEVSHLNALEERFSRLWTQCQRCQGSLHEDVICTSRDCPIFYMRKKVRKDLEDQEQLLRRFGPPGPEAW
For the molecule B1, the Kd was 114 nM, the koff worked out at 0.0002 s⁻¹, the kon is 1750 M⁻¹ s⁻¹ and the response units was found to be 90 RU.
